Experimental data reported in the RNAGym collection of RNA variant scans (doi:10.7554/elife.80360).

B1: HDV Ribozyme (parent)
chain: GGCCGGCAUGGUCCCAGCCUCCUCGCUGGCGCCGGCUGGGCAACAUUCCGAGGGGACCGUCCCCUCGGUAAUGGCGAAUGGGACCCA

Variants of: B1
Assay: self-cleavage, relative activity (ratio to wild type); higher = more cleavage; co-transcriptional

Row | Variant | self-cleavage
1 | GGCCGGCAUGGUCCCAGCCUCCUCGCUGGCGCCGGCUGGGCGACAUUCCGAGGGGACCGUCCCCUGGGUAAUGGCGAAUGGGACCCA [A42G C66G] | 0.538
2 | GGCCGGCAUGGUCCCAGCCUCCUCGCUGGCGCCGGCUGGGCGACAUUCCGAGGGGACCGUCCCCUAGGUAAUGGCGAAUGGGACCCA [A42G C66A] | 0.702
3 | GGCCGGCAUGGUCCCAGCCUCCUCGCUGGCGCCGGCUGGGCUACAUUCCGAGGGGACCGUCCACUCGGUAAUGGCGAAUGGGACCCA [A42U C63A] | 0.325
4 | GGCCGGCAUGGUCCCAGCCUCCUCGCUGGCGCCGGCUGGGCUACAUUCCGAGGGGACCGUCCCCUCCGUAAUGGCGAAUGGGACCCA [A42U G67C] | 0.415
5 | GGCCGGCAUGGUCCCAGCCUCCUCGCUGGCGCCGGCUGGGCUACAUUCCGAGGGGACCGUCCCCUCAGUAAUGGCGAAUGGGACCCA [A42U G67A] | 0.47
6 | GGCCGGCAUGGUCCCAGCCUCCUCGCUGGCGCCGGCUGGGCUACAUUCCGAGGGGACCGUCCCCUCUGUAAUGGCGAAUGGGACCCA [A42U G67U] | 0.346
7 | GGCCGGCAUGGUCCCAGCCUCCUCGCUGGCGCCGGCUGGGCUACAUUCCGAGGGGACCGUCCCCUCGGUAAUGGCGAAUGGGACCCC [A42U A87C] | 0.533
8 | GGCCGGCAUGGUCCCAGCCUCCUCGCUGGCGCCGGCUGGGCGACAUUCCGAGGGGACCGUCCCCUCGGUAAUGACGAAUGGGACCCA [A42G G74A] | 0.0396
9 | GGCCGGCAUGGUCCCAGCCUCCUCGCUGGCGCCGGCUGGGCGACAUUCCGAGGGGACCGUCCCCUCGGUAGUGGCGAAUGGGACCCA [A42G A71G] | 0.554
10 | GGCCGGCAUGGUCCCAGCCUCCUCGCUGGCGCCGGCUGGGCCACAUUCCGAGGGGACCGUCCCCUCGGUAAUGGCGAACGGGACCCA [A42C U79C] | 0.124
11 | GGCCGGCAUGGUCCCAGCCUCCUCGCUGGCGCCGGCUGGGCGACAUUCCGAGGGGACCGUCCCCUCGGUAAUGGCGAAUGGGGCCCA [A42G A83G] | 0.361
12 | GGCCGGCAUGGUCCCAGCCUCCUCGCUGGCGCCGGCUGGGCUACAAUCCGAGGGGACCGUCCCCUCGGUAAUGGCGAAUGGGACCCA [A42U U46A] | 0.443
13 | GGCCGGCAUGGUCCCAGCCUCCUCGCUGGCGCCGGCUGGGCUACAUUCCGAGGGGACCGUCCCCUCGGAAAUGGCGAAUGGGACCCA [A42U U69A] | 0.364
14 | GGCCGGCAUGGUCCCAGCCUCCUCGCUGGCGCCGGCUGGGCUACAUUCCGAGGGGACCGUCCCCUCGGGAAUGGCGAAUGGGACCCA [A42U U69G] | 0.519
15 | GGCCGGCAUGGUCCCAGCCUCCUCGCUGGCGCCGGCUGGGCUACAUUCCGAGGGGACCGUCCCCUCGGCAAUGGCGAAUGGGACCCA [A42U U69C] | 0.437
16 | GGCCGGCAUGGUCCCAGCCUCCUCGCUGGCGCCGGCUGGGCUACAUUCCGAGGGGACCGUCCCCUCGGUAAUGGCGAAUGGAACCCA [A42U G82A] | 0.157
17 | GGCCGGCAUGGUCCCAGCCUCCUCGCUGGCGCCGGCUGGGCGACAUUCCGAGGGGACCGUCCCCUCGGUGAUGGCGAAUGGGACCCA [A42G A70G] | 0.623
18 | GGCCGGCAUGGUCCCAGCCUCCUCGCUGGCGCCGGCUGGGCGACAUUCCGAGGGGACCGUCCCCUCGGUCAUGGCGAAUGGGACCCA [A42G A70C] | 0.798
19 | GGCCGGCAUGGUCCCAGCCUCCUCGCUGGCGCCGGCUGGGCGACAUUCCGAGGGGACCGUCCCCUCGGUAAUGGCGCAUGGGACCCA [A42G A77C] | 0.0723
20 | GGCCGGCAUGGUCCCAGCCUCCUCGCUGGCGCCGGCUGGGCGACCUUCCGAGGGGACCGUCCCCUCGGUAAUGGCGAAUGGGACCCA [A42G A45C] | 0.399
21 | GGCCGGCAUGGUCCCAGCCUCCUCGCUGGCGCCGGCUGGGCGAAAUUCCGAGGGGACCGUCCCCUCGGUAAUGGCGAAUGGGACCCA [A42G C44A] | 0.536
22 | GGCCGGCAUGGUCCCAGCCUCCUCGCUGGCGCCGGCUGGGCGACAUUCCGAGGGGACCGUCCCCUCGGUAAUGGCGAAUGGGACGCA [A42G C85G] | 0.522

Row | Variant | self-cleavage
23 | GGCCGGCAUGGUCCCAGCCUCCUCGCUGGCGCCGGCUGGGCUACAUUCCGAGAGGACCGUCCCCUCGGUAAUGGCGAAUGGGACCCA [A42U G53A] | 0.875
24 | GGCCGGCAUGGUCCCAGCCUCCUCGCUGGCGCCGGCUGGGCUACAUUCCGAGGGGACCGUCCCCUCGGUAAUGGCGAAUGGGACGCA [A42U C85G] | 0.332
25 | GGCCGGCAUGGUCCCAGCCUCCUCGCUGGCGCCGGCUGGGCGACAUUCCGAGGGGACCAUCCCCUCGGUAAUGGCGAAUGGGACCCA [A42G G59A] | 0.831
26 | GGCCGGCAUGGUCCCAGCCUCCUCGCUGGCGCCGGCUGGGCUACAUUCCGAGGUGACCGUCCCCUCGGUAAUGGCGAAUGGGACCCA [A42U G54U] | 0.465
27 | GGCCGGCAUGGUCCCAGCCUCCUCGCUGGCGCCGGCUGGGCGACAUUCCGAGGGGACCGUCCCCUCGGUAAUGGCGAAUCGGACCCA [A42G G80C] | 0.364
28 | GGCCGGCAUGGUCCCAGCCUCCUCGCUGGCGCCGGCUGGGCUACAUUCCGCGGGGACCGUCCCCUCGGUAAUGGCGAAUGGGACCCA [A42U A51C] | 0.665
29 | GGCCGGCAUGGUCCCAGCCUCCUCGCUGGCGCCGGCUGGGCUACAUUCCAAGGGGACCGUCCCCUCGGUAAUGGCGAAUGGGACCCA [A42U G50A] | 0.383
30 | GGCCGGCAUGGUCCCAGCCUCCUCGCUGGCGCCGGCUGGGCUACAUUCCGAGGGGACCGUCCCCUCGGUAAUGGCGAUUGGGACCCA [A42U A78U] | 0.284
31 | GGCCGGCAUGGUCCCAGCCUCCUCGCUGGCGCCGGCUGGGCUACAUUCCGAGGGGACCGUCCCCUCGGUAAUGGCGACUGGGACCCA [A42U A78C] | 0.169
32 | GGCCGGCAUGGUCCCAGCCUCCUCGCUGGCGCCGGCUGGGCGACAUUGCGAGGGGACCGUCCCCUCGGUAAUGGCGAAUGGGACCCA [A42G C48G] | 0.791
33 | GGCCGGCAUGGUCCCAGCCUCCUCGCUGGCGCCGGCUGGGCGACAUUACGAGGGGACCGUCCCCUCGGUAAUGGCGAAUGGGACCCA [A42G C48A] | 0.7
34 | GGCCGGCAUGGUCCCAGCCUCCUCGCUGGCGCCGGCUGGGCUACAUUCCGAGGGGACCGUCCCCUCGGUAAUGGCGAAUGUGACCCA [A42U G81U] | 0.145
35 | GGCCGGCAUGGUCCCAGCCUCCUCGCUGGCGCCGGCUGGGCUACAUUCCGAGGGGACCGUCCCGUCGGUAAUGGCGAAUGGGACCCA [A42U C64G] | 0.574
36 | GGCCGGCAUGGUCCCAGCCUCCUCGCUGGCGCCGGCUGGGCGACAUUCCGAGGGGACCGUCCCCUCGGUAAUGGCGACUGGGACCCA [A42G A78C] | 0.107
37 | GGCCGGCAUGGUCCCAGCCUCCUCGCUGGCGCCGGCUGGGCUACAUACCGAGGGGACCGUCCCCUCGGUAAUGGCGAAUGGGACCCA [A42U U47A] | 0.302
38 | GGCCGGCAUGGUCCCAGCCUCCUCGCUGGCGCCGGCUGGGCUACAUCCCGAGGGGACCGUCCCCUCGGUAAUGGCGAAUGGGACCCA [A42U U47C] | 0.394
39 | GGCCGGCAUGGUCCCAGCCUCCUCGCUGGCGCCGGCUGGGCGACAUUCCGAGGGGACCGUACCCUCGGUAAUGGCGAAUGGGACCCA [A42G C61A] | 0.779
40 | GGCCGGCAUGGUCCCAGCCUCCUCGCUGGCGCCGGCUGGGCUACAUUCCGAGGGGACCGUCCCCUCGGUUAUGGCGAAUGGGACCCA [A42U A70U] | 0.312
41 | GGCCGGCAUGGUCCCAGCCUCCUCGCUGGCGCCGGCUGGGCUACAUUCCGAGGGGACCGGCCCCUCGGUAAUGGCGAAUGGGACCCA [A42U U60G] | 0.615
42 | GGCCGGCAUGGUCCCAGCCUCCUCGCUGGCGCCGGCUGGGCGACAUUCCGAGGGGAACGUCCCCUCGGUAAUGGCGAAUGGGACCCA [A42G C57A] | 0.527
43 | GGCCGGCAUGGUCCCAGCCUCCUCGCUGGCGCCGGCUGGGCUACAUUCCGAGGGGACCGUCCCCUCGGUAAUGGCGAAUGGGAACCA [A42U C84A] | 0.655
44 | GGCCGGCAUGGUCCCAGCCUCCUCGCUGGCGCCGGCUGGGCUACAUUCCGAGGGGACCGUCCCCUCGGUAAUGGCGAAUGGGAUCCA [A42U C84U] | 0.181

Row | Variant | self-cleavage
45 | GGCCGGCAUGGUCCCAGCCUCCUCGCUGGCGCCGGCUGGGCUACAUUCCGAGGGGACCGUCCCCUCGGUAUUGGCGAAUGGGACCCA [A42U A71U] | 0.369
46 | GGCCGGCAUGGUCCCAGCCUCCUCGCUGGCGCCGGCUGGGCUACAUUCCGAGGGGAACGUCCCCUCGGUAAUGGCGAAUGGGACCCA [A42U C57A] | 0.575
47 | GGCCGGCAUGGUCCCAGCCUCCUCGCUGGCGCCGGCUGGGCUACAUUCCGAGGGGACCGUCCCCACGGUAAUGGCGAAUGGGACCCA [A42U U65A] | 0.434
48 | GGCCGGCAUGGUCCCAGCCUCCUCGCUGGCGCCGGCUGGGCGACAUUCCGAGGGGACCGUCCCCUCAGUAAUGGCGAAUGGGACCCA [A42G G67A] | 0.435
49 | GGCCGGCAUGGUCCCAGCCUCCUCGCUGGCGCCGGCUGGGCGACAUUCCGAGGGGACCGUCCCCUCGGUAAUGGCGAAUGGGACCCG [A42G A87G] | 0.602
50 | GGCCGGCAUGGUCCCAGCCUCCUCGCUGGCGCCGGCUGGGCGACAUUCCGAGGGGACCGUCCCCUCGGUAAAGGCGAAUGGGACCCA [A42G U72A] | 0.369
51 | GGCCGGCAUGGUCCCAGCCUCCUCGCUGGCGCCGGCUGGGCUAUAUUCCGAGGGGACCGUCCCCUCGGUAAUGGCGAAUGGGACCCA [A42U C44U] | 0.674
52 | GGCCGGCAUGGUCCCAGCCUCCUCGCUGGCGCCGGCUGGGCUACAUUCCGAGGGGACCGUCUCCUCGGUAAUGGCGAAUGGGACCCA [A42U C62U] | 0.742
53 | GGCCGGCAUGGUCCCAGCCUCCUCGCUGGCGCCGGCUGGGCGACAUUCCCAGGGGACCGUCCCCUCGGUAAUGGCGAAUGGGACCCA [A42G G50C] | 0.287
54 | GGCCGGCAUGGUCCCAGCCUCCUCGCUGGCGCCGGCUGGGCGACAUUCCUAGGGGACCGUCCCCUCGGUAAUGGCGAAUGGGACCCA [A42G G50U] | 0.542
55 | GGCCGGCAUGGUCCCAGCCUCCUCGCUGGCGCCGGCUGGGCGACAUUCCGAGGUGACCGUCCCCUCGGUAAUGGCGAAUGGGACCCA [A42G G54U] | 0.502
56 | GGCCGGCAUGGUCCCAGCCUCCUCGCUGGCGCCGGCUGGGCGACAUUCCGAGCGGACCGUCCCCUCGGUAAUGGCGAAUGGGACCCA [A42G G53C] | 0.391
57 | GGCCGGCAUGGUCCCAGCCUCCUCGCUGGCGCCGGCUGGGCUACAUUCCGAGGGGACCGUCCCCUCGGUAAUUGCGAAUGGGACCCA [A42U G73U] | 0.378
58 | GGCCGGCAUGGUCCCAGCCUCCUCGCUGGCGCCGGCUGGGCGACAUUCCGACGGGACCGUCCCCUCGGUAAUGGCGAAUGGGACCCA [A42G G52C] | 0.733
59 | GGCCGGCAUGGUCCCAGCCUCCUCGCUGGCGCCGGCUGGGCGACAUCCCGAGGGGACCGUCCCCUCGGUAAUGGCGAAUGGGACCCA [A42G U47C] | 0.532
60 | GGCCGGCAUGGUCCCAGCCUCCUCGCUGGCGCCGGCUGGGCGACAUUCCGAGGGGACCGUCCCCUCGGUAAUGGUGAAUGGGACCCA [A42G C75U] | 0.397
61 | GGCCGGCAUGGUCCCAGCCUCCUCGCUGGCGCCGGCUGGGCGACAUUCCGAGGGGACCGUCCCCUCGGUAAUGGCGAAUGGAACCCA [A42G G82A] | 0.158
62 | GGCCGGCAUGGUCCCAGCCUCCUCGCUGGCGCCGGCUGGGCGACAAUCCGAGGGGACCGUCCCCUCGGUAAUGGCGAAUGGGACCCA [A42G U46A] | 0.554
63 | GGCCGGCAUGGUCCCAGCCUCCUCGCUGGCGCCGGCUGGGCUACAUUCCGAGGGGUCCGUCCCCUCGGUAAUGGCGAAUGGGACCCA [A42U A56U] | 0.577
64 | GGCCGGCAUGGUCCCAGCCUCCUCGCUGGCGCCGGCUGGGCUACAUUCCGAGGGGCCCGUCCCCUCGGUAAUGGCGAAUGGGACCCA [A42U A56C] | 0.629
